Laboratory results taken from the supplement of paper PMC9428881.
± gives the standard error.

Experiment: background-corrected fluorescence of 3'-dye-labeled ssDNA relative to brightest sequence (3'-GCGCG) (fraction); higher = brighter dye fluorescence (less quenching)
Summary of the method: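 Single-stranded DNA was built on glass slides by light-directed phosphoramidite synthesis, ending in a 3' Cy3 or Cy5 dye beside each of 1024 permuted pentamers. Arrays were washed in acetonitrile for 2 h at r.t., then scanned at 532 or 635 nm before and after overnight ethylenediamine/ethanol deprotection. Each value averages 10 features per array and at least 3 syntheses. Fluorescence, corrected by subtracting unlabeled-oligo background, is scaled to the brightest sequence.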

Sequence	background-corrected fluorescence (dye: Cy3 (3' terminal))	background-corrected fluorescence (dye: Cy5 (3' terminal))
TTTTTTCATCATGATGCGCATTTTTTTTTTTTTTTGGCAT [TACGG]	0.603 ± 0.011	0.406 ± 0.025
TTTTTTGAGCATGAGCATGCTTTTTTTTTTTTTTTCTCTA [ATCTC]	0.483 ± 0.0051	0.36 ± 0.023
TTTTTTGATGCTGATGATGCTTTTTTTTTTTTTTTCACCA [ACCAC]	0.493 ± 0.019	0.375 ± 0.043
TTTTTGCAGCAGCATGCTGCTTTTTTTTTTTTTTTTTTAA [AATTT]	0.569 ± 0.036	0.439 ± 0.024
TTTTTTGATGAGCATGATGCTTTTTTTTTTTTTTTCCTCA [ACTCC]	0.493 ± 0.0056	0.377 ± 0.042
TTTTTTCAGCATGCTGAGCATTTTTTTTTTTTTTTGTACT [TCATG]	0.476 ± 0.0074	0.399 ± 0.025
TTTTTTGATCAGCATGAGCATTTTTTTTTTTTTTTCGTCT [TCTGC]	0.485 ± 0.02	0.36 ± 0.015
TTTTTTCATGCGCATGATGCTTTTTTTTTTTTTTTGATCA [ACTAG]	0.535 ± 0.034	0.43 ± 0.022
TTTTTTGCGCATCATCATCATTTTTTTTTTTTTTTATGGG [GGGTA]	0.661 ± 0.035	0.548 ± 0.037
TTTTTTGCTGATCAGCATCATTTTTTTTTTTTTTTACGTG [GTGCA]	0.589 ± 0.022	0.472 ± 0.028
TTTTTGCATGCGCATGATCATTTTTTTTTTTTTTTTATCG [GCTAT]	0.515 ± 0.016	0.402 ± 0.031
TTTTTTCATCATGCTGATCATTTTTTTTTTTTTTTGGACG [GCAGG]	0.567 ± 0.016	0.455 ± 0.019
TTTTTGCAGCATCAGCATGCTTTTTTTTTTTTTTTTTGTA [ATGTT]	0.576 ± 0.02	0.487 ± 0.053
TTTTTTGATGCTCATGCTGCTTTTTTTTTTTTTTTCAGAA [AAGAC]	0.609 ± 0.022	0.471 ± 0.027
TTTTTGCATGAGCATGATGCTTTTTTTTTTTTTTTTCTCA [ACTCT]	0.456 ± 0.019	0.348 ± 0.022
TTTTTTCATCATGAGCAGCATTTTTTTTTTTTTTTGGCTT [TTCGG]	0.558 ± 0.029	0.405 ± 0.023
TTTTTTGATGATGCGCATGATTTTTTTTTTTTTTTCCATC [CTACC]	0.387 ± 0.081	0.281 ± 0.02
TTTTTTGATGCTCATGCGCATTTTTTTTTTTTTTTCAGAT [TAGAC]	0.576 ± 0.018	0.469 ± 0.021
TTTTTTCAGCATCATGCGCATTTTTTTTTTTTTTTGTGAT [TAGTG]	0.548 ± 0.032	0.429 ± 0.021
TTTTTTGATGCTGAGCATGATTTTTTTTTTTTTTTCACTC [CTCAC]	0.399 ± 0.017	0.296 ± 0.022
TTTTTGCATGAGCATGCGCATTTTTTTTTTTTTTTTCTAT [TATCT]	0.501 ± 0.027	0.37 ± 0.029
TTTTTTCATGATGATGCTGCTTTTTTTTTTTTTTTGCCAA [AACCG]	0.504 ± 0.034	0.427 ± 0.041
TTTTTGCATGATGATGCTGATTTTTTTTTTTTTTTTCCAC [CACCT]	0.379 ± 0.023	0.273 ± 0.016

Sequence	background-corrected fluorescence (dye: Cy3 (3' terminal))	background-corrected fluorescence (dye: Cy5 (3' terminal))
TTTTTTGAGCATCATGCTCATTTTTTTTTTTTTTTCTGAG [GAGTC]	0.621 ± 0.024	0.479 ± 0.041
TTTTTGCATGATCATGATGCTTTTTTTTTTTTTTTTCGCA [ACGCT]	0.569 ± 0.035	0.434 ± 0.029
TTTTTTCAGCATCAGCAGCATTTTTTTTTTTTTTTGTGTT	0.565 ± 0.028	0.435 ± 0.082
TTTTTTGATCAGCATCATGCTTTTTTTTTTTTTTTCGTGA [AGTGC]	0.634 ± 0.016	0.531 ± 0.037
TTTTTTCAGCATGATCATCATTTTTTTTTTTTTTTGTCGG [GGCTG]	0.666 ± 0.025	0.506 ± 0.027
TTTTTGCATGCTGCGCAGCATTTTTTTTTTTTTTTTAATT	0.549 ± 0.014	0.377 ± 0.027
TTTTTGCATGATGCTCATCATTTTTTTTTTTTTTTTCAGG [GGACT]	0.606 ± 0.034	0.486 ± 0.034
TTTTTGCATGAGCAGCATGATTTTTTTTTTTTTTTTCTTC [CTTCT]	0.382 ± 0.043	0.282 ± 0.018
TTTTTTGAGCATGATGCGCATTTTTTTTTTTTTTTCTCAT [TACTC]	0.513 ± 0.018	0.378 ± 0.019
TTTTTTCATGCTGATGATGATTTTTTTTTTTTTTTGACCC [CCCAG]	0.387 ± 0.0053	0.282 ± 0.022
TTTTTTGATGAGCAGCATGATTTTTTTTTTTTTTTCCTTC [CTTCC]	0.362 ± 0.03	0.288 ± 0.03
TTTTTTGCTGCGCATCAGCATTTTTTTTTTTTTTTAATGT [TGTAA]	0.616 ± 0.033	0.507 ± 0.031
TTTTTTCATGCTGATGATGCTTTTTTTTTTTTTTTGACCA [ACCAG]	0.499 ± 0.022	0.394 ± 0.024
TTTTTTGATCATGCTCATGCTTTTTTTTTTTTTTTCGAGA [AGAGC]	0.695 ± 0.032	0.53 ± 0.037
TTTTTTGCTCAGCATGCGCATTTTTTTTTTTTTTTAGTAT [TATGA]	0.554 ± 0.031	0.417 ± 0.028
TTTTTGCATGATGAGCATCATTTTTTTTTTTTTTTTCCTG [GTCCT]	0.475 ± 0.028	0.366 ± 0.034
TTTTTTCAGCATGATGATGATTTTTTTTTTTTTTTGTCCC [CCCTG]	0.38 ± 0.023	0.294 ± 0.019
TTTTTTGCTGCGCATGCTCATTTTTTTTTTTTTTTAATAG [GATAA]	0.535 ± 0.0083	0.408 ± 0.017
TTTTTTGCTGCTGCGCATGCTTTTTTTTTTTTTTTAAATA [ATAAA]	0.564 ± 0.053	0.451 ± 0.031
TTTTTTGCGCAGCATGCTCATTTTTTTTTTTTTTTATTAG [GATTA]	0.552 ± 0.011	0.421 ± 0.058
TTTTTGCATCAGCATCATCATTTTTTTTTTTTTTTTGTGG [GGTGT]	0.585 ± 0.06	0.511 ± 0.029
TTTTTTCATGATGCTGATCATTTTTTTTTTTTTTTGCACG	0.548 ± 0.028	0.383 ± 0.035
TTTTTTCATGATGCTCATGATTTTTTTTTTTTTTTGCAGC [CGACG]	0.508 ± 0.0059	0.402 ± 0.045

Sequence	background-corrected fluorescence (dye: Cy3 (3' terminal))	background-corrected fluorescence (dye: Cy5 (3' terminal))
TTTTTGCATGATGCTGCTGATTTTTTTTTTTTTTTTCAAC [CAACT]	0.429 ± 0.0094	0.318 ± 0.025
TTTTTTCAGCAGCAGCAGCATTTTTTTTTTTTTTTGTTTT	0.531 ± 0.019	0.368 ± 0.021
TTTTTTGCTGCTGAGCATGCTTTTTTTTTTTTTTTAACTA [ATCAA]	0.5388 ± 0.0047	0.406 ± 0.019
TTTTTTGATGATCATCATCATTTTTTTTTTTTTTTCCGGG [GGGCC]	0.731 ± 0.012	0.655 ± 0.076
TTTTTTGAGCAGCATGCTGATTTTTTTTTTTTTTTCTTAC [CATTC]	0.404 ± 0.026	0.3 ± 0.017
TTTTTTCATCAGCATGCTGATTTTTTTTTTTTTTTGGTAC [CATGG]	0.442 ± 0.016	0.349 ± 0.036
TTTTTGCATGCTCATGCGCATTTTTTTTTTTTTTTTAGAT	0.569 ± 0.031	0.463 ± 0.02
TTTTTGCAGCATGCTGATGCTTTTTTTTTTTTTTTTTACA [ACATT]	0.502 ± 0.01	0.397 ± 0.025
TTTTTGCATGCTGATGCTCATTTTTTTTTTTTTTTTACAG [GACAT]	0.499 ± 0.036	0.413 ± 0.03
TTTTTTCATGATGATCATGATTTTTTTTTTTTTTTGCCGC [CGCCG]	0.549 ± 0.017	0.434 ± 0.033
TTTTTGCATGATGATGCTGCTTTTTTTTTTTTTTTTCCAA [AACCT]	0.536 ± 0.038	0.388 ± 0.025
TTTTTTGCTCATGATGATGATTTTTTTTTTTTTTTAGCCC [CCCGA]	0.393 ± 0.022	0.304 ± 0.018
TTTTTTGCTGATGATCATCATTTTTTTTTTTTTTTACCGG [GGCCA]	0.69 ± 0.03	0.551 ± 0.059
TTTTTGCATGCTGATCATGCTTTTTTTTTTTTTTTTACGA [AGCAT]	0.627 ± 0.026	0.491 ± 0.031
TTTTTTGATGATGCTGCTGATTTTTTTTTTTTTTTCCAAC [CAACC]	0.403 ± 0.021	0.291 ± 0.02
TTTTTGCAGCATCATGATCATTTTTTTTTTTTTTTTTGCG [GCGTT]	0.559 ± 0.028	0.46 ± 0.036
TTTTTTGATCATGATGAGCATTTTTTTTTTTTTTTCGCCT [TCCGC]	0.488 ± 0.028	0.369 ± 0.03
TTTTTTGATGCTGATGAGCATTTTTTTTTTTTTTTCACCT [TCCAC]	0.457 ± 0.021	0.326 ± 0.03
TTTTTTCATGATCATGAGCATTTTTTTTTTTTTTTGCGCT [TCGCG]	0.623 ± 0.022	0.485 ± 0.025
TTTTTTGAGCATGCTCATCATTTTTTTTTTTTTTTCTAGG [GGATC]	0.647 ± 0.019	0.507 ± 0.036
TTTTTTGCTGATGCTGATGCTTTTTTTTTTTTTTTACACA	0.469 ± 0.022	0.374 ± 0.031
TTTTTTGCTCATGAGCATGATTTTTTTTTTTTTTTAGCTC [CTCGA]	0.408 ± 0.042	0.323 ± 0.024
